From PMC3386930, “Altering APP Proteolysis: Increasing sAPPalpha Production by Targeting Dimerization of the APP Ectodomain” (PLoS ONE, 2012)

Legend:
eAPP230–624 [1] = molecular target: T1, eAPP230–624 (Homo sapiens, UniProt P05067); test: Intrinsic tryptophan fluorescence of eAPP230–624; type: binding; conditions: for inhibition of eAPP dimerization (in words): legend of titration of 0.64 µM eAPP230–624 with 0–60 µM fragment; for log(EC50), EC50 = molar ratio Aβ to eAPP230–624 that invokes half the response: quenching at 375 nm, equation 4, n constrained to 7, R^2 = 0.88, differences not significant at p<0.05
T1 construct: made in house
Method: The excitation spectra of the intrinsic tryptophan fluorescence were recorded using either a Shimadzu RF-530PC (Shimadzu Scientific Instruments) or a Spectramax XPS spectrophotometer (Molecular Devices).
Full emission spectra were measured with the Shimadzu RF-530PC using a 3 ml quartz cuvette, a 5 nm slit width and protein concentrations between 0.2–0.6 µM. […] For these larger dilutions, control titrations with the protein alone were used to generate a scaling matrix where the scale factor was both a function of wavelength and dilution. […] A similar scaling matrix was used to correct for the effect of dilution with DMSO. […] All titrations were performed at 24°C. The oligomers were stored on ice during the experiment.
These concentrations are analogous to concentrations used to create complexes for the small angle x-ray scattering analysis. The incubated material was diluted with PBS so that the final protein concentration was 0.5 µM. The spectra were recorded with the Shimadzu […].
For experiments with the Spectromax XPS plate reader, an excitation wavelength of 295 nm was used. This excitation wavelength was chosen to minimize both the contribution of tyrosine in the protein and the background fluorescence of the 96-well plates (Costar #3915).
For the quenching experiments, the data were analyzed by constructing Stern-Volmer plots, F0/F vs. Q, where Fo is the intensity of the fluorescence at zero concentration, F is the intensity of the fluorescence, and Q is the concentration of the quenching agent. When quenching is through either a static (binding) or dynamic (collisional) mechanism this plot is linear and follows the equation: [drawing 1] (1) where Ksv is the quenching constant. When both processes are present the Stern-Volmer plot is quadratic: [drawing 2] (2) where KD is the equilibrium constant associated with dynamic quenching and Ks is the equilibrium constant associated with static quenching. All parameters were determined using PRISM (GraphPad) and the appropriate non-linear curve fitting routine.
The centroid wavelength (λc) was calculated as: [drawing 3] (3) where I(λi) is the intensity observed for the wavelength (λi). The range of wavelengths was 310–390 nm.

eAPP230–624 [2] = molecular target: T1, eAPP230–624; test: Small-angle X-ray scattering (SAXS) of eAPP230–624 complexes; type: binding; conditions: for Dmax / Rg: SAXS, GNOM, eAPP230–624 with peptide; for Dmax: maximum dimension, max. estimated error ±10 Å; for Rg: radius of gyration, max. estimated error ±2 Å
Method: The samples were incubated on ice for 20 minutes and then concentrated to 50 µl with 10-kDa cutoff concentrators (Millipore). […] Samples of the filtrates were used for buffer subtraction.
The samples were then concentrated and purified with a Superdex S200 size-exclusion column with 20 mM Tris pH 7.4, 100 mM sodium chloride and 2 mM EDTA. Samples of the protein buffer from the size-exclusion columns were used for buffer subtraction.
Data collection and processing
Small-angle X-ray scattering data were collected using protein concentrations in the range of 0.5–3 mg/ml and an X-ray wavelength of 1.11 Å at beam line 12.3.1 (Advanced Light Source). Data were integrated with software customized for the beam line and processed with the program PRIMUS [30]. The program GNOM [31] was used to calculate the maximum dimension and the radius of gyration and to estimate the intensity of the scattering at zero angle for higher concentration samples.

[3] = molecular target: MBP-eAPP_(230–624), maltose binding protein fusion protein containing residues 230–624 (UniProt P05067); test: small-angle X-ray scattering (SAXS); 150 µl MBP-eAPP230-624 (≈0.5 mg/ml) diluted with 400 µl of peptide solution, 20 minutes on ice, concentrated to 50 µl with 10-kDa cutoff concentrators
[4] = molecular target: TRX-eAPP_(290–624), thioredoxin fusion protein containing residues 290–624 of APP695 (UniProt P05067); test: small-angle X-ray scattering (SAXS); eAPP fragment incubated on ice with Aβ oligomers or Aβ fragments (peptide less than 10 µM), concentrated and purified on Superdex S200 in 20 mM Tris pH 7.4, 100 mM sodium chloride, 2 mM EDTA
[5] = molecular target: the molecule itself; test: small-angle X-ray scattering (SAXS); eAPP fragment alone; 0.5–3 mg/ml, X-ray wavelength 1.11 Å; relative mass from I(0) against albumin and the eAPP fragment dimer
[6] = incubated, 1:6 molar ratio, 0.5 µM eAPP230–624

Aβ12-28: Aβ fragment
inhibition of eAPP dimerization (in words) (eAPP230–624 [1]): inhibit eAPP dimerization
pattern of changes in the intrinsic fluorescence (in words) (eAPP230–624 [1]; titration of 0.64 µM eAPP230–624, 345 nm): acted like Aβ1-40 dimers in terms of the changes in the intrinsic fluorescence

20-kDa Aβ1-42: 20-kDa Aβ1-42 oligomers
Dmax (eAPP230–624 [2]): 170 Å
Rg (eAPP230–624 [2]): 46 Å

Aβ1-42 species greater than 200-kDa: Aβ1-42 species greater than 200-kDa in size
effect on intrinsic fluorescence at 375 nm (in words) (eAPP230–624 [1]; Spectramax XPS, increasing molar ratio, up to 120 µM Aβ): slight enhancement of the intrinsic fluorescence
change in fluorescence spectra (in words) (eAPP230–624 [1]; [6]): relatively minor change in the fluorescence spectra

7-kDa Aβ1-40: 7-kDa Aβ1-40 dimers, prepared by sonication and 15 minutes incubation
inhibition of eAPP dimerization (in words) (eAPP230–624 [1]): inhibit eAPP dimerization
MWcalc/MWseq (eAPP230–624 [2]; SAXS relative mass, MWseq 45-kDa for eAPP230–624, max. error ±0.2, monomer around 1.3, protein alone 2.0): 1.2
Dmax (eAPP230–624 [2]): 180 Å
Rg (eAPP230–624 [2]): 49 Å

13-kDa Aβ1-42: 13-kDa Aβ1-42 oligomers, predominately trimers
increase in intensity of the fluorescence (eAPP230–624 [1]; rapid dilution, final 1:27 molar ratio, 0.64 µM eAPP230–624, Shimadzu RF-530PC): 114%

70-kDa Aβ1-40: 70-kDa Aβ1-40 oligomer pool
log(EC50), EC50 = molar ratio Aβ to eAPP230–624 that invokes half the response (eAPP230–624 [1]; Spectramax XPS): 1.32±0.01

Aβ10-20 (peptide)
MWcalc/MWseq (apparent mass of the sample over the sequence mass of the eAPP fragment) [3]: 1.3

Aβ12-24: Aβ fragment (VHHQKLVFFAEDV; Amyloid-beta protein 42; UniProt P05067 683-695, looked up, fragment)
inhibition of eAPP dimerization (in words) (eAPP230–624 [1]): inhibit eAPP dimerization

13-kDa Aβ1-40: 13-kDa Aβ1-40 oligomer pool
more oligomers that can bind eAPP (ratio of amplitudes A) (eAPP230–624 [1]; from ratio of amplitudes of maximal response, vs 70-kDa pools, Spectramax XPS): about 150%
blue-shift in the centroid wavelength (eAPP230–624 [1]; [6]): did not produce a significant blue shift
fluorescence intensity relative to eAPP230–624 (eAPP230–624 [1]; [6]): 80%
log(EC50), EC50 = molar ratio Aβ to eAPP230–624 that invokes half the response (eAPP230–624 [1]; Spectramax XPS): 1.27±0.02

Aβ5-14: Aβ fragment (RHDSGYEVHH; Amyloid-beta protein 42; UniProt P05067 676-685, looked up, fragment)
inhibition of eAPP dimerization (in words) (eAPP230–624 [1]): inhibit eAPP dimerization

Aβ11-17 (peptide)
MWcalc/MWseq (apparent mass of the sample over the sequence mass of the eAPP fragment) [4]: 1.2

B1: MBP-eAPP_(230–624), maltose binding protein fusion protein containing residues 230–624 (domain or fragment, UniProt P05067-4 230-624, looked up)
chain: EEEEVAEVEEEEADDDEDDEDGDEVEEEAEEPYEEATERTTSIATTTTTTTESVEEVVRVPTTAASTPDAVDKYLETPGDENEHAHFQKAKERLEAKHRERMSQVMREWEEAERQAKNLPKADKKAVIQHFQEKVESLEQEAANERQQLVETHMARVEAMLNDRRRLALENYITALQAVPPRPRHVFNMLKKYVRAEQKDRQHTLKHFEHVRMVDPKKAAQIRSQVMTHLRVIYERMNQSLSLLYNVPAVAEEIQDEVDELLQKEQNYSDDVLANMISEPRISYGNDALMPSLTETKTTVELLPVNGEFSLDDLQPWHSFGADSVPANTENEVEPVDARPAADRGLTTRPGSGLTNIKTEEISEVKMDAEFRHDSGYEVHHQKLVFFAEDVGSNK
notes: numbers count on: APP695; Dimer by SAXS; source: expressed and purified as previously described [18]
stoichiometry N [5]: 2

B2: eAPP_(230–624), fragment of the APP ectodomain containing residues 230–624 (domain or fragment, UniProt P05067-4 230-624, looked up)
chain: B1 chain
notes: as for B1
stoichiometry N [5]: 2

B3: TRX-eAPP_(290–624), thioredoxin fusion protein containing residues 290–624 of APP695 (domain or fragment, UniProt P05067-4 290-624, looked up)
chain: PTTAASTPDAVDKYLETPGDENEHAHFQKAKERLEAKHRERMSQVMREWEEAERQAKNLPKADKKAVIQHFQEKVESLEQEAANERQQLVETHMARVEAMLNDRRRLALENYITALQAVPPRPRHVFNMLKKYVRAEQKDRQHTLKHFEHVRMVDPKKAAQIRSQVMTHLRVIYERMNQSLSLLYNVPAVAEEIQDEVDELLQKEQNYSDDVLANMISEPRISYGNDALMPSLTETKTTVELLPVNGEFSLDDLQPWHSFGADSVPANTENEVEPVDARPAADRGLTTRPGSGLTNIKTEEISEVKMDAEFRHDSGYEVHHQKLVFFAEDVGSNK
notes: as for B1
stoichiometry N [5]: 2
